{"source": "patent JP2021042960A", "about": "(dated 2021)", "binders": {"B1": {"name": "ラット抗ヒトCLDN15モノクローナル抗体クローン2C11 (antibody, V domains shown)", "VH": "AVQLVESGGGLVQPKESLKISCAASGFTFSNAAMYWVRQAPGKGLEWVARIRTKPNNYATYYADSVKGRFTISRDDSKSMVYLQMDNLKTEDSAMYYCTAPAYYFGYWGQGVMVTVSS", "VL": "DVVLTQTPPTLSATIGQSVSISCRSSQSLLHSNGNTYLHWLLQRPGQSPQLLIYLVSRLESGVPNRFSGSGSGTDFTLKISGVEAEDLGVYYCVQGTHAPWTFGGGTKLELK", "notes": "Rat monoclonal antibody from a hybridoma, used as culture supernatant and detected with anti-rat IgG-HRP; also called 2C11抗体; 抗CLDN15モノクローナル抗体(2C11)"}}, "key": {"[1]": {"molecular_target": "T1, ヒトCLDN15タンパク質 (human, UniProt P56746 1-228)", "T1 construct": "Expressed in HEK293T cells from a plasmid that also expresses Venus; 228 residues, four-pass membrane protein; also called クローディン15; WT", "T1 sequence": "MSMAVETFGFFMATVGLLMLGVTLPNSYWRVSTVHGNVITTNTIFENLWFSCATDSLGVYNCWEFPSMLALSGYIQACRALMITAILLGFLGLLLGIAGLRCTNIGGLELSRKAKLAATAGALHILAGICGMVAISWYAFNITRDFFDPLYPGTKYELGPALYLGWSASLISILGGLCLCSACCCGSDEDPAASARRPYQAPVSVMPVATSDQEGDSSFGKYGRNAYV", "test": "immunohistochemistry on paraffin sections of CLDN-expressing cell pellets and of patients' malignant pleural mesothelioma tissue"}, "[2]": {"molecular_target": "T2, ヒトCLDN5タンパク質 (human, UniProt O00501 1-218)", "T2 construct": "whole, on cells; Expressed with Venus in HEK293T cells; formalin-fixed paraffin sections of cell pellets", "T2 sequence (looked up)": "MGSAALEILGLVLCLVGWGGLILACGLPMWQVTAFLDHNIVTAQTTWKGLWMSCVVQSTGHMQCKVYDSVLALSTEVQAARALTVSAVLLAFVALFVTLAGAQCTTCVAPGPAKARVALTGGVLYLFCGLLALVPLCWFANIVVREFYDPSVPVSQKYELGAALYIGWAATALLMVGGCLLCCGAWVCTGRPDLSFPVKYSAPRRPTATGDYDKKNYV", "test": "immunohistochemistry on paraffin sections of HEK293T cells expressing the CLDN"}, "[3]": {"molecular_target": "T3, ヒトCLDN1タンパク質 (human, UniProt O95832 1-211)", "T3 construct": "whole, on cells; Expressed with Venus in HEK293T cells; formalin-fixed paraffin sections of cell pellets", "T3 sequence (looked up)": "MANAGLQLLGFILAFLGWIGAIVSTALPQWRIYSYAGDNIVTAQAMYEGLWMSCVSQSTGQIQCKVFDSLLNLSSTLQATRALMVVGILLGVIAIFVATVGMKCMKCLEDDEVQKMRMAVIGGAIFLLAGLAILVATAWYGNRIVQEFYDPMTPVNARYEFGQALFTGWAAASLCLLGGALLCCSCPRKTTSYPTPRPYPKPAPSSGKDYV", "test": "immunohistochemistry on paraffin sections of HEK293T cells expressing the CLDN"}, "[4]": {"molecular_target": "T4, ヒトCLDN6タンパク質 (human, UniProt P56747 1-220)", "T4 construct": "whole, on cells; Expressed with Venus in HEK293T cells; formalin-fixed paraffin sections of cell pellets", "T4 sequence (looked up)": "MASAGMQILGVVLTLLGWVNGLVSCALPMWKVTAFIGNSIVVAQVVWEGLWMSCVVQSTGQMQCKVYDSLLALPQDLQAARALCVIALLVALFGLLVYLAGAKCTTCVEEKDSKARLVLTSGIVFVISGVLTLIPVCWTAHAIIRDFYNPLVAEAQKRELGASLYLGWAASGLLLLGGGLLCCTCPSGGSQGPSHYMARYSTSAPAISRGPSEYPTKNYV", "test": "immunohistochemistry on paraffin sections of HEK293T cells expressing the CLDN"}, "[5]": {"molecular_target": "T5, ヒトCLDN9タンパク質 (human, UniProt O95484 1-217)", "T5 construct": "whole, on cells; Expressed with Venus in HEK293T cells; formalin-fixed paraffin sections of cell pellets; also called CLDN9", "T5 sequence (looked up)": "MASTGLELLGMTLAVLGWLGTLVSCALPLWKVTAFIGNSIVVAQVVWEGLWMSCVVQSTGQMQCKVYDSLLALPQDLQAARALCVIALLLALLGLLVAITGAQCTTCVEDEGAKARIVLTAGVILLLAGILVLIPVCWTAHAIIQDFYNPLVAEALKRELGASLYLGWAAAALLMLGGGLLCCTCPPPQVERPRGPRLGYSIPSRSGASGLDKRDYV", "test": "immunohistochemistry on paraffin sections of HEK293T cells expressing the CLDN"}, "[6]": {"molecular_target": "T6, ヒトCLDN4タンパク質 (human, UniProt O14493 1-209)", "T6 construct": "whole, on cells; Expressed with Venus in HEK293T cells; formalin-fixed paraffin sections of cell pellets", "T6 sequence (looked up)": "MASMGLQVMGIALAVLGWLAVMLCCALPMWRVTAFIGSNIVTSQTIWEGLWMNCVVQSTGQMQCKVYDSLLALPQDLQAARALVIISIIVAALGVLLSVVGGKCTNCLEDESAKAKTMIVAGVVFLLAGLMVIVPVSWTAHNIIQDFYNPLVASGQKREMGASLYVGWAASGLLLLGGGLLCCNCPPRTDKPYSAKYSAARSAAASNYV", "test": "immunohistochemistry on paraffin sections of HEK293T cells expressing the CLDN"}}, "data": [{"binder": "B1", "values": [{"measurement": "binding result", "setting": "[1]", "result": "binds"}, {"measurement": "binding result", "setting": "[2]", "result": "no binding"}, {"measurement": "binding result", "setting": "[3]", "result": "no binding"}, {"measurement": "binding result", "setting": "[4]", "result": "no binding"}, {"measurement": "binding result", "setting": "[5]", "result": "no binding"}, {"measurement": "binding result", "setting": "[6]", "result": "no binding"}]}]}
